Experimental findings from publication PMC8941942, “Functional and Structural Characterization of Diverse NfsB Chloramphenicol Reductase Enzymes from Human Pathogens” (Microbiology Spectrum, 2022) are described below.

Series [1] relates to O=C(N[C@H](CO)[C@H](O)c1ccc([N+](=O)[O-])cc1)C(Cl)Cl. Kind of series: purified protein. The conditions noted are these: apparent, 1 mM NADPH, 1 µM FMN, 50 mM Tris pH 8, ~23°C.
In series [2] the test system is NC(=O)C1=CN([C@@H]2O[C@H](COP(=O)(O)OP(=O)(O)OC[C@H]3O[C@@H](n4cnc5c(N)ncnc54)[C@H](OP(=O)(O)O)[C@@H]3O)[C@@H](O)[C@H]2O)C=CC1. Kind of series: purified protein. The following applies: apparent, 1 mM chloramphenicol, 1 µM FMN, 50 mM Tris pH 8, ~23°C.
Series [3] deals with T1, Ng FA1090 NfsB (Neisseria gonorrhoeae, UniProt Q5F9K5).
T1 construct: gene NGO_0388
The series is classed as cell-based. The conditions noted are these: 100 µg/mL chloramphenicol, MDG medium, 37°C; compared with empty vector.

T1 sequence (Q5F9K5 1-221): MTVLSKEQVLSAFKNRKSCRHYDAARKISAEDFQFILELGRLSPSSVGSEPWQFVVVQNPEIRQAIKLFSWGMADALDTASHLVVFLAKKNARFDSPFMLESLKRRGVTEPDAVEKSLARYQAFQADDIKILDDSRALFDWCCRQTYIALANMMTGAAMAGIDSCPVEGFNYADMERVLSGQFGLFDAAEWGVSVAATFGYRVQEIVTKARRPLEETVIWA

“Hi KW20 NfsB (Haemophilus influenzae Rd KW20)”: in series [1], the Km is 260 ± 20 µM, the kcat worked out at 14 ± 0.3 s⁻¹ and the kcat/Km came to 55500 M⁻¹ s⁻¹. Also, in series [2], the Km came out at 49 ± 6 µM, the turnover number (kcat) is 13 ± 0.5 s⁻¹ and the kcat/Km is 278000 M⁻¹ s⁻¹.
“Hi 86-028NP NfsB (Haemophilus influenzae 86-028NP)”: in series [1], the Km was found to be 200 ± 40 µM, the kcat is 8.7 ± 0.9 s⁻¹ and the kcat/Km came out at 44500 M⁻¹ s⁻¹. Besides, in series [2], the Km is 21 ± 2 µM, the kcat came to 9.9 ± 0.6 s⁻¹ and the kcat/Km stood at 478000 M⁻¹ s⁻¹.
On to “Nm Z2491 NfsB (Neisseria meningitidis Z2491)”, for which, in series [1], the Km is reported as 1,300 ± 800 μM, the kcat amounted to 8.9 ± 3 s⁻¹ and the kcat/Km came out at 8120 M⁻¹ s⁻¹. Moreover, in series [2], the Michaelis constant (Km) is 22 ± 4 µM, the kcat turned out to be 8.2 ± 0.3 s⁻¹ and the kcat/Km stood at 388000 M⁻¹ s⁻¹.
As to `O=C(N[C@H](CO)[C@H](O)c1ccc([N+](=O)[O-])cc1)C(Cl)Cl` [chloramphenicol], in series [3], the “Bratton-Marshall assay of resting E. coli expressing nfsB” value was “Es. coli strains expressing H. influenzae or Neisseria nfsB genes showed robust signal”.
